Blank lines part the entries; values can stand above or below the binder they belong to. Starred links: 1 amine or outer side, 2 acyl side, 3 side chain; linkers in the order of their positions; H or OH if unused. Non-standard residues stand in square brackets, D forms with d. *: point of attachment. AC4Abu = α-carboxy-4-aminobutyric acid, O=C(C(CCN[*:1])C(=O)[*:3])[*:2]; Oic = O=C(O)[C@@H]1C[C@@H]2CCCC[C@@H]2N1; Phe(4-Cl) = N[C@@H](Cc1ccc(Cl)cc1)C(=O)O; dPhe(4-I) = N[C@H](Cc1ccc(I)cc1)C(=O)O; γGlu = O=C(O)[C@H](CCC(=O)[*:2])N[*:1]; NMeR = CN[C@@H](CCCNC(=N)N)C(=O)O; Tridecanoyl = CCCCCCCCCCCCC(=O)*; hArg = N=C(N)NCCCC[C@H](N)C(=O)O; Cha = N[C@@H](CC1CCCCC1)C(=O)O; Tle = CC(C)(C)[C@H](N)C(=O)O; Nle = CCCC[C@H](N)C(=O)O; AEEA = NCCOCCOCC(=O)O; Aib = CC(C)(N)C(=O)O
Assays:
human APJ receptor = molecular target: T1, human APJ receptor (human, UniProt P35414 1-380); test: cell-based or functional assay
T1 sequence (looked up): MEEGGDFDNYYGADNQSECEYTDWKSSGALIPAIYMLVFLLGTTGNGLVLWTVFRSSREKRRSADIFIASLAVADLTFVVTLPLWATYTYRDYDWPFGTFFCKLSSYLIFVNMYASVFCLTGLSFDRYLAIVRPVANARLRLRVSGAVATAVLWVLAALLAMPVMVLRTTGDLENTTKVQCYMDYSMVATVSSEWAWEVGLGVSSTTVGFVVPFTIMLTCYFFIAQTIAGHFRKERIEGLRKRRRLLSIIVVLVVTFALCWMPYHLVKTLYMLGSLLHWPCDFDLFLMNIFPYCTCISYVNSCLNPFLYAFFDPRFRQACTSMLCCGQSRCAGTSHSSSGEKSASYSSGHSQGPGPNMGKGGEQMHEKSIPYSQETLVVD

rat APJ receptor = molecular target: T2, rat APJ receptor (rat, UniProt Q9JHG3 1-377); test: cell-based or functional assay
T2 sequence (looked up): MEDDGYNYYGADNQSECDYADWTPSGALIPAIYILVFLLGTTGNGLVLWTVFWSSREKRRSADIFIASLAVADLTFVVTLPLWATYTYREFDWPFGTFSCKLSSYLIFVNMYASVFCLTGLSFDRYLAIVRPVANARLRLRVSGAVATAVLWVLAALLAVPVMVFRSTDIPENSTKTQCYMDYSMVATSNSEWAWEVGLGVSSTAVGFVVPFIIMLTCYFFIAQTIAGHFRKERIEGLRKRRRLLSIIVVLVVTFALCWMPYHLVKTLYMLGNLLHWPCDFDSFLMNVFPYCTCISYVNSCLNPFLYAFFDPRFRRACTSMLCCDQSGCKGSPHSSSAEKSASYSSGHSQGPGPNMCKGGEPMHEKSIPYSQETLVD

EC50 Human APJ Receptor (GTPγS assay) (human APJ receptor): 53.2 nM
EC50 Rat APJ Receptor (GTPγS assay) (rat APJ receptor): 346 nM
B2: Apelin polypeptide SEQ ID NO: 524 (peptide)
peptide: Tridecanoyl-[γGlu][AEEA][AEEA][dQ]EP[NMeR][Cha]SHKG[Oic][Nle][Aib][Phe(4-Cl)]-OH
SMILES: CCCCCCCCCCCCC(=O)N[C@@H](CCC(=O)NCCOCCOCC(=O)NCCOCCOCC(=O)N[C@H](CCC(N)=O)C(=O)N[C@@H](CCC(=O)O)C(=O)N1CCC[C@H]1C(=O)N(C)[C@@H](CCCNC(=N)N)C(=O)N[C@@H](CC1CCCCC1)C(=O)N[C@@H](CO)C(=O)N[C@@H](Cc1c[nH]cn1)C(=O)N[C@@H](CCCCN)C(=O)NCC(=O)N1[C@H](C(=O)N[C@@H](CCCC)C(=O)NC(C)(C)C(=O)N[C@@H](Cc2ccc(Cl)cc2)C(=O)O)C[C@@H]2CCCC[C@@H]21)C(=O)O

EC50 Human APJ Receptor (GTPγS assay) (human APJ receptor): 9.18 nM
EC50 Rat APJ Receptor (GTPγS assay) (rat APJ receptor): 56.1 nM
B3: Apelin polypeptide SEQ ID NO: 520 (peptide)
peptide: Tridecanoyl-[γGlu][AEEA][AEEA]QP[NMeR][Cha]SHKG[Oic][Nle][Aib][Phe(4-Cl)]-OH
SMILES: CCCCCCCCCCCCC(=O)N[C@@H](CCC(=O)NCCOCCOCC(=O)NCCOCCOCC(=O)N[C@@H](CCC(N)=O)C(=O)N1CCC[C@H]1C(=O)N(C)[C@@H](CCCNC(=N)N)C(=O)N[C@@H](CC1CCCCC1)C(=O)N[C@@H](CO)C(=O)N[C@@H](Cc1c[nH]cn1)C(=O)N[C@@H](CCCCN)C(=O)NCC(=O)N1[C@H](C(=O)N[C@@H](CCCC)C(=O)NC(C)(C)C(=O)N[C@@H](Cc2ccc(Cl)cc2)C(=O)O)C[C@@H]2CCCC[C@@H]21)C(=O)O

EC50 Human APJ Receptor (GTPγS assay) (human APJ receptor): 5.13 nM
EC50 Rat APJ Receptor (GTPγS assay) (rat APJ receptor): 33.9 nM
B4: Apelin polypeptide SEQ ID NO: 596 (peptide)
peptide: Tridecanoyl-[γGlu][AEEA][AEEA][dQ][hArg]P[dR][Cha]SHKG[Oic][Nle][Oic]-OH
SMILES: CCCCCCCCCCCCC(=O)N[C@@H](CCC(=O)NCCOCCOCC(=O)NCCOCCOCC(=O)N[C@H](CCC(N)=O)C(=O)N[C@@H](CCCCNC(=N)N)C(=O)N1CCC[C@H]1C(=O)N[C@H](CCCNC(=N)N)C(=O)N[C@@H](CC1CCCCC1)C(=O)N[C@@H](CO)C(=O)N[C@@H](Cc1c[nH]cn1)C(=O)N[C@@H](CCCCN)C(=O)NCC(=O)N1[C@H](C(=O)N[C@@H](CCCC)C(=O)N2[C@H](C(=O)O)C[C@@H]3CCCC[C@@H]32)C[C@@H]2CCCC[C@@H]21)C(=O)O

The next lines start with the binder.

B1: Apelin polypeptide SEQ ID NO: 453 (peptide)
peptide: Tridecanoyl-[AC4Abu][AEEA][AEEA][dQ][hArg]P[dR][Cha]SHKG[Oic][Nle][dPhe(4-I)]-OH
SMILES: CCCCCCCCCCCCC(=O)NCCC(C(=O)O)C(=O)NCCOCCOCC(=O)NCCOCCOCC(=O)N[C@H](CCC(N)=O)C(=O)N[C@@H](CCCCNC(=N)N)C(=O)N1CCC[C@H]1C(=O)N[C@H](CCCNC(=N)N)C(=O)N[C@@H](CC1CCCCC1)C(=O)N[C@@H](CO)C(=O)N[C@@H](Cc1c[nH]cn1)C(=O)N[C@@H](CCCCN)C(=O)NCC(=O)N1[C@H](C(=O)N[C@@H](CCCC)C(=O)N[C@H](Cc2ccc(I)cc2)C(=O)O)C[C@@H]2CCCC[C@@H]21
EC50 Human APJ Receptor (GTPγS assay) (human APJ receptor): 19 nM
EC50 Rat APJ Receptor (GTPγS assay) (rat APJ receptor): 20.8 nM

B5: Apelin polypeptide SEQ ID NO: 433 (peptide)
peptide: Tridecanoyl-[γGlu][AEEA][AEEA][dQ][hArg]P[dR][Tle]SHKG[Oic][Nle]P[Phe(4-Cl)]-OH
SMILES: CCCCCCCCCCCCC(=O)N[C@@H](CCC(=O)NCCOCCOCC(=O)NCCOCCOCC(=O)N[C@H](CCC(N)=O)C(=O)N[C@@H](CCCCNC(=N)N)C(=O)N1CCC[C@H]1C(=O)N[C@H](CCCNC(=N)N)C(=O)N[C@H](C(=O)N[C@@H](CO)C(=O)N[C@@H](Cc1c[nH]cn1)C(=O)N[C@@H](CCCCN)C(=O)NCC(=O)N1[C@H](C(=O)N[C@@H](CCCC)C(=O)N2CCC[C@H]2C(=O)N[C@@H](Cc2ccc(Cl)cc2)C(=O)O)C[C@@H]2CCCC[C@@H]21)C(C)(C)C)C(=O)O
EC50 Human APJ Receptor (GTPγS assay) (human APJ receptor): 12.8 nM
EC50 Rat APJ Receptor (GTPγS assay) (rat APJ receptor): 19.8 nM

B6: Apelin polypeptide SEQ ID NO: 373 (peptide)
peptide: Tridecanoyl-[γGlu][AEEA][AEEA][dQ][hArg]P[dR][Cha]SYKG[Oic][Nle]P[Phe(4-Cl)]-OH
SMILES: CCCCCCCCCCCCC(=O)N[C@@H](CCC(=O)NCCOCCOCC(=O)NCCOCCOCC(=O)N[C@H](CCC(N)=O)C(=O)N[C@@H](CCCCNC(=N)N)C(=O)N1CCC[C@H]1C(=O)N[C@H](CCCNC(=N)N)C(=O)N[C@@H](CC1CCCCC1)C(=O)N[C@@H](CO)C(=O)N[C@@H](Cc1ccc(O)cc1)C(=O)N[C@@H](CCCCN)C(=O)NCC(=O)N1[C@H](C(=O)N[C@@H](CCCC)C(=O)N2CCC[C@H]2C(=O)N[C@@H](Cc2ccc(Cl)cc2)C(=O)O)C[C@@H]2CCCC[C@@H]21)C(=O)O
EC50 Human APJ Receptor (GTPγS assay) (human APJ receptor): 2.81 nM
EC50 Rat APJ Receptor (GTPγS assay) (rat APJ receptor): 3.31 nM

From patent US10941182 (Amgen, dated 2021)
